Data from patent US20250136677A1 (ZOETIS SERVICES, published 2025).

Experiments:
human IL-31 = target: T1, human IL-31 (human, UniProt Q6EBC2 24-164); test: SPR (Biacore), IL-31 surface, single antibody concentration
T1 sequence: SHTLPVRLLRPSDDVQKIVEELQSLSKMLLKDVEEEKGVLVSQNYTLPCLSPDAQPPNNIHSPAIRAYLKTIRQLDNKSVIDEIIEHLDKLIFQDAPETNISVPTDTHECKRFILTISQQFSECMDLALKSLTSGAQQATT
Protocol: (§1) For the indirect ELISA method, antibody binding to wildtype and feline IL-31 15H05 mutant proteins was assessed. All nine canine monoclonal antibodies (ZIL1, ZIL8, ZIL8, ZIL11, ZIL69, ZIL94, ZIL154, ZIL159, and ZIL171) were capable of binding to wildtype feline IL-31 and binding was impacted by mutations in the mAb 15H05 epitope region confirming the correct binding phenotype determined during the initial screening used to identify them. In comparison, the 11E12 antibody bound to the wild-type feline IL-31 and its binding was not impacted by the mutations in the 15H05 epitope region as evidenced by the data in FIG. 4. To confirm binding, biacore analysis was performed using canine, feline, equine, human, feline 15H05 mutant, and feline 11E12 mutant IL-31 proteins as surfaces and a single test concentration of antibody. Similar to ELISA observations, all antibodies tested bound to wildtype feline IL-31. In agreement with the data described above in this section, mouse antibodies 11E12 and 15H05 both bound to canine and feline IL-31 surfaces. Three additional antibodies where shown to have this dual binding property, ZIL69 (partial canine binding), ZIL94, and ZIL159. From this group of nine fully canine antibodies, only ZIL1 and ZIL9 cross-reacted with equine IL-31. Of note, antibody 15H05 was the only one of all assayed herein that bound to canine, feline, and equine IL-31 indicating some level of epitope conservation across the three species. In contrast, none of the antibodies described herein bound to human IL-31. Additional biacore surfaces were used to verify ELISA observations showing differential binding of antibodies to wildtype feline IL-31 and two proteins with mutations in the 15H05 (15H05 mutant) or 11E12 (11E12 mutant) epitopes.

[1] = target: T2, equine IL-31 protein (Equine_IL31) (equine); test: as above
T2 construct: Recombinant equine IL-31
T2 chain: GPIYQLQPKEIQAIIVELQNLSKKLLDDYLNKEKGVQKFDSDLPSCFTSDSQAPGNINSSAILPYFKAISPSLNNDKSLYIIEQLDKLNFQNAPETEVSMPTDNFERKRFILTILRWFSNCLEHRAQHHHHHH
Protocol: as §1

[2] = target: T3, mutant feline IL-31 15H05 protein (Feline_IL31_15H05_mutant) (feline); test: indirect ELISA, IL-31 protein coated
T3 sequence: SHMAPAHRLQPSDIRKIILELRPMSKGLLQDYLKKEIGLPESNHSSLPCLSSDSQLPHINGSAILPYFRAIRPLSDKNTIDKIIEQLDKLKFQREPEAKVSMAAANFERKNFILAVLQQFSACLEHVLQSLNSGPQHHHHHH

[3] = target: T4, wildtype feline IL-31 protein (Feline_IL31_wildtype) (feline); test: cell-based or functional assay
T4 chain: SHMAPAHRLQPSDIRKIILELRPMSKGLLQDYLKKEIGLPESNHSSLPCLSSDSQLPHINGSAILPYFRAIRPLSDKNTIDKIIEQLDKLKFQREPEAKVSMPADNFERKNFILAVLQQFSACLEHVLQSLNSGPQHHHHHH

[4] = target: T5, canine IL-31 protein (Canine_IL31) (canine); test: cell-based or functional assay
T5 chain: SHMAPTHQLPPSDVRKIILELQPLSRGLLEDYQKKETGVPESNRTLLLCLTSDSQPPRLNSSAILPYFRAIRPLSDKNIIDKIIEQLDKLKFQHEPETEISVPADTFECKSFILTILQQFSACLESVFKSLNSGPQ

[5] = target: T4, wildtype feline IL-31 protein …; test: SPR (Biacore), IL-31 on chip, 1:1 fit
Outline: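 IL-31 was amine-coupled (NHS/EDC) to the chip at 5 μg/mL and quenched with ethanolamine, and candidate mAbs were flowed over it as analytes. Binding curves were fitted to a 1:1 model.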

[6] = target: T4, wildtype feline IL-31 protein …; test: cell-based or functional assay
[7] = target: T5, canine IL-31 protein (Canine_IL31); test: SPR (Biacore), IL-31 on chip, 1:1 fit

B1: ZIL11 (recombinant fully canine antibody) (antibody, V domains shown)
VH: EVQLVESGGDLVKPAGSLRLSCVASGFTFRTYVMNWVRQAPGKGLQWVASINGGGSSPTYADAVRGRFTVSRDNAQNSLFLQMNSLRAEDTAVYFCVVSMVGPFDYWGQGTLVTVSS
VL: SSVLTQPPSVSVSLGQTATISCSGESLSNYYAQWFQQKAGQAPVLVIYKDTERPSGIPDRFSGSSSGNTHTLTISGARAEDEADYYCESAVSSDTIVFGGGTHLTVL
notes: also called CAN-ZIL11; copies: 2 + 2
**Q.** Does B1 bind (human IL-31)?
**A.** no binding

**Q.** Does B1 bind [1]?
**A.** no binding

**Q.** What about the ELISA OD [2] of the same binder?
**A.** 0.33 OD

B2: ZIL9 (recombinant fully canine antibody) (antibody, V domains shown)
VH: EVQLVESGGDLVKPPGSLRLSCVASGFTFSSYDMTWVRQAPGKGLQWVADVNSGGTGTAYAVAVKGRFTISRDNAKKTLYLQMNSLRAEDTAVYYCAKLGVRDGLSVWGQGTLVTVSS
VL: SSVLTQPPSVSVSLGQTATISCSGESLNEYYTQWFQQKAGQAPVLVIYRDTERPSGIPDRFSGSSSGNTHTLTISGARAEDEADYYCESAVDTGTLVFGGGTHLAVLR
**Q.** Which ELISA OD [2] does the source give for B2 here?
**A.** 0.73 OD

B3: ZTS-927 (antibody)
heavy: QVLLVQSGAEVRTPGASVKIFCKASGYSFTSYTIHWLRQAPAQGLEWMGNINPTSGYTENNQRFKDRLTLTADTSTNTAYMELSSLRSADTAMYYCARWGFKYDGEWSFDVWGAGTTVTVSSASTTAPSVFPLAPSCGTTSGATVALACLVLGYFPEPVTVSWNSGALTSGVHTFPAVLQASGLYSLSSMVTVPSSRWLSDTFTCNVAHPPSNTKVDKTVRKTDHPPGPKPCDCPKCPPPEMLGGPSIFIFPPKPKDTLSISRTPEVTCLVVDLGPDDSDVQITWFVDNTQVYTAKTSPREEQFNSTYRVVSVLPILHQDWLKGKEFKCKVNSKSLPSPIERTISKAKGQPHEPQVYVLPPAQEELSRNKVSVTCLIKSFHPPDIAVEWEITGQPEPENNYRTTPPQLDSDGTYFVYSKLSVDRSHWQRGNTYTCSVSHEALHSHHTQKSLTQSPGK
light: EIQMTQSPSSLSASPGDRVTITCRASQGISIWLSWYQQKPGNIPKVLINKASNLHIGVPSRFSGSGSGTDFTLTISSLEPEDAATYYCLQSQTYPLTFGGGTKLEIKRSDAQPSVFLFQPSLDELHTGSASIVCILNDFYPKEVNVKWKVDGVVQNKGIQESTTEQNSKDSTYSLSSTLTMSSTEYQSHEKFSCEVTHKSLASTLVKSFQRSECQRE
notes: Felinized 15H05 from a single GS plasmid
**Q.** For B3, which “IC50, inhibition of feline IL-31-induced STAT3 phosphorylation, canine DH82 cells” value [3] is on record?
**A.** 1.57 µg/mL

**Q.** And the “IC50, inhibition of feline IL-31-induced STAT3 phosphorylation, feline FCWF4 cells” value [3]?
**A.** 5.26 µg/mL

**Q.** What about the “IC50, inhibition of canine IL-31-induced STAT3 phosphorylation, canine DH82 cells” value [4] of the same binder?
**A.** 23.2 µg/mL

**Q.** What about the “IC50, inhibition of canine IL-31-induced STAT3 phosphorylation, feline FCWF4 cells” value [4] of the same binder?
**A.** 39.6 µg/mL

**Q.** And the Kd [5]?
**A.** 0.614 nM

**Q.** What about the koff [5] of the same binder?
**A.** 2.3e-05 s⁻¹

**Q.** And the kon [5]?
**A.** 37400 M⁻¹ s⁻¹

B4: ZIL1 (recombinant fully canine antibody) (antibody, V domains shown)
VH: EVQLVESGGDLVKPGGSLRLSCVASGFTFSSYGMSWVRQAPGKGLQWVAHINSGGSSTYYADAVKGRFTISRDNAKNTLYLQMNSLRAEDTAVYYCVEVYTTLAAFWTDNFDYWGQGTLVTVSS
VL: QSVLTQPTSVSGSLGQRVTISCSGSTNNIGILAATWYQQLPGKAPKVLVYSDGNRPSGVPDRFSGSKSGNSATLTITGLQAEDEADYYCQSFDTTLDAYVFGSGTQLTVLR
**Q.** Which ELISA OD [2] does the source give for B4 here?
**A.** 0.92 OD

B5: ZIL8 (recombinant fully canine antibody) (antibody, V domains shown)
VH: EVQLVESGGDLVKPAGSLRLSCVASGFTFSDYAMSWVRQAPGRGLQWVAGIDSVGSGTSYADAVKGRFTISRDDAKNTLYLQMFNLRAEDTAIYYCASGFPGSFEHWGQGTLVTVSS
VL: QSVLTQPASVSGSLGQKVTISCTGSSSNIGSGYVGWYQQLPGTGPRTLIYYNSDRPSGVPDRFSGSRSGTTATLTISGLQAEDEADYYCSVYDRTFNAVFGGGTHLTVL
notes: also called CAN-ZIL8; copies: 2 + 2
**Q.** What does the source list for B5?
**A.** binding result (human IL-31): no binding; binding result [1]: no binding

B6: Feline 11E12 1.1 (antibody, V domains shown)
VH: QVLLVQSGAEVKKPGASVKIFCKASGYSFTYYDINWLRQAPEQGLEWMGWIFPGDGGTKYNETFKGRLTLTADTSTNTVYMELSSLRSADTAMYYCARGGTSVIRDAMDYWGQGALVTVSS
VL: EIQMTQSPSSLSASPGDRVTITCRASESVDNYGISFMHWYQQKPGKVPKLLIYRASNLESGVPSRFSGSGSGTDFTLTISSLEPEDAATYYCQQSNKDPLTFGQGT
notes: Variable chains were subcloned into plasmids with 'the respective feline heavy or kappa constant region'; Made in HEK 293 cells; also called Felinized 11E12 1.1; felinized 11E12
**Q.** How did the “potency against feline IL-31 in the feline FCWF assay (pSTAT3)” value [6] turn out when B6 was run?
**A.** ~2 fold

**Q.** What about the koff [7] of the same binder?
**A.** 0.000141 s⁻¹

**Q.** And the kon [7]?
**A.** 185000 M⁻¹ s⁻¹

**Q.** And the Kd [5]?
**A.** 22.2 nM

**Q.** And the koff [5]?
**A.** 0.000444 s⁻¹

**Q.** And the kon [5]?
**A.** 20000 M⁻¹ s⁻¹

B7: mouse:feline 15H05 chimera (antibody)
heavy: QVQLQQSAAELARPGASVKMSCKTSGYTFTSYTIHWIKQRPGQGLEWIGNINPTSGYTENNQRFKDKTTLTVDRSSNTAYLQLHSLTSEDSAVYFCARWGFKYDGEWSFDVWGAGTTVTVSSASTTAPSVFPLAPSCGTTSGATVALACLVLGYFPEPVTVSWNSGALTSGVHTFPAVLQASGLYSLSSMVTVPSSRWLSDTFTCNVAHPPSNTKVDKTVRKTDHPPGPKPCDCPKCPPPEAAGAPSIFIFPPKPKDTLSISRTPEVTCLVVDLGPDDSDVQITWFVDNTQVYTAKTSPREEQFNSTYRVVSVLPILHQDWLKGKEFKCKVNSKSLPSPIERTISKAKGQPHEPQVYVLPPAQEELSRNKVSVTCLIKSFHPPDIAVEWEITGQPEPENNYRTTPPQLDSDGTYFVYSKLSVDRSHWQRGNTYTCSVSHEALHSHHTQKSLTQSPGK
light: DIQMNQSPSSLSASLGDTITVTCRASQGISIWLSWYQQKPGNIPKVLINKASNLHIGVPPRFSGSGSGTHFTLTITSLQPEDIATYYCLQSQTYPLTFGGGTKLEINRSDAQPSVFLFQPSLDELHTGSASIVCILNDFYPKEVNVKWKVDGVVQNKGIQESTTEQNSKDSTYSLSSTLTMSSTEYQSHEKFSCEVTHKSLASTLVKSFQRSECQRE
notes: Mouse variable regions on feline IgG constant regions; made in HEK 293 cells; also called 15H05 mouse feline chimera
**Q.** For B7, which “IC50, inhibition of feline IL-31-induced STAT3 phosphorylation, canine DH82 cells” value [3] is on record?
**A.** 5.59 µg/mL

**Q.** And the “IC50, inhibition of feline IL-31-induced STAT3 phosphorylation, feline FCWF4 cells” value [3]?
**A.** 3.25 µg/mL

**Q.** And the IC50 against canine IL-31 (pSTAT3; cell type not stated for this pair of values) [4]?
**A.** 28.6 µg/ml

**Q.** And the “IC50 against feline IL-31 induced pSTAT3 signaling in feline FCWF4 cells, relative to the mouse:feline 11E12 chimera” value [6]?
**A.** ~2 fold

**Q.** What about the Kd [7] of the same binder?
**A.** 0.0129 nM

**Q.** And the koff [7]?
**A.** 1.62e-07 s⁻¹

**Q.** And the kon [7]?
**A.** 12600 M⁻¹ s⁻¹

B8: ZIL69 (recombinant fully canine antibody) (antibody, V domains shown)
VH: EVQLVESGGDLVKPAGSLRLSCVASGFTFSSYAMKWVRQAPGKGLQWVATINNDGTRTGYADAVRGRFTISKDNAKNTLYLQMDSLRADDTAVYYCTKGNAESGCTGDHCPPYWGQGTLVTVSS
VL: SSVLTQPPSVSVSLGQTATISCSGESLNKYYAQWFQQKAGQAPVLVIYKDTERPSGIPDRFSGSSAGNTHTLTISGARAEDEADYYCESAVSSETNVFGSGTQLTVLR
notes: also called CAN-ZIL69
**Q.** Does B8 bind [1]?
**A.** no binding

**Q.** What about the ELISA OD [2] of the same binder?
**A.** 0.92 OD
